In patent US20250298041A1:

Tests used:
[1] = target: Recombinant LBD of GPIbα (residues 1-290), WT (human) (UniProt P07359); experiment: VWF:NCo ELISA, immobilised GPIbα-LBD, 250 nM 6D12; activity/antigen ratio
[2] = target: Recombinant LBD of GPIbα (residues 1-290), WT (human) (UniProt P07359); experiment: VWF:GPIbNab ELISA on LBD-WT with activating nanobodies; pdVWF as the reference
[3] = target: Recombinant LBD of GPIbα (residues 1-290), WT (human) (UniProt P07359); experiment: activity/antigen ratio; VWF:GPIbR ELISA on LBD-WT with 1.0 mg/mL ristocetin
[4] = target: Recombinant LBD of GPIbα (residues 1-290), WT (human) (UniProt P07359); experiment: activity/antigen ratio; VWF:GPIbNab ELISA on LBD-WT with nanobody 6C4, pdVWF as reference
[5] = target: Recombinant LBD of GPIbα (residues 1-290), WT (human) (UniProt P07359); experiment: activity/antigen ratio; VWF:GPIbNab ELISA on LBD-WT with nanobody 6C11, pdVWF as reference
[6] = target: Recombinant LBD of GPIbα (residues 1-290), WT (human) (UniProt P07359); experiment: activity/antigen ratio; VWF:GPIbNab ELISA on LBD-WT with nanobody 6D12, pdVWF as reference
[7] = target: Recombinant LBD of GPIbα (residues 1-290), WT (human) (UniProt P07359); experiment: VWF:GPIbNab ELISA on LBD-WT with 6C11; pdVWF as the reference
[8] = target: Recombinant LBD of GPIbα (residues 1-290), D235Y/M239V (human) (UniProt P07359); experiment: activity/antigen ratio; VWF:GPIbM ELISA on LBD-D235Y/M239V without activator
[9] = target: Recombinant LBD of GPIbα (residues 1-290), WT (human) (UniProt P07359); experiment: VWF:GPIbNab ELISA on LBD-WT with 6C4 or 6D12 (not said which gives which end); pdVWF as the reference

Chain of Recombinant LBD of GPIbα (residues 1-290), WT (human) (P07359 17-306 limits assumed, form in doubt): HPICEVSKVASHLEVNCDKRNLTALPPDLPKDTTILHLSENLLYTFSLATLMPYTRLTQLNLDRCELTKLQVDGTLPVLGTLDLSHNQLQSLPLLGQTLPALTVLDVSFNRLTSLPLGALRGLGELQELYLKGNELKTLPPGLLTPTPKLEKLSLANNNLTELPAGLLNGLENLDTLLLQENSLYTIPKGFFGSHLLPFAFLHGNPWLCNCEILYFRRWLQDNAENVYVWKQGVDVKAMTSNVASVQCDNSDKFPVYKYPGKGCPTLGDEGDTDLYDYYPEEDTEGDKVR
Chain of Recombinant LBD of GPIbα (residues 1-290), D235Y/M239V (human) (P07359 17-306 D251Y/M255V limits assumed, form in doubt): as the sequence (P07359 17-306 limits assumed, form in doubt) above, with D235Y, M239V counted along it

Row | VWF:NCo/VWF:Ag ratio [1] | VWF:GPIbNab/VWF:Ag ratio [2] | VWF:GPIbR/VWF:Ag [3] | VWF:GPIbNab6C4/VWF:Ag [4] | VWF:GPIbNab6C11/VWF:Ag [5] | VWF:GPIbNab6D12/VWF:Ag [6] | VWF:GPIbNab/VWF:Ag ratio [7] | VWF:GPIbM/VWF:Ag [8] | VWF:GPIbNab/VWF:Ag ratio [9] | Substance
1 | 1 | 1 | 0.84 | 1.05 | 1.01 | 0.93 |  |  |  | Plasma-derived VWF (pdVWF, Alphanate) (from UniProt P04275 764-2813) (ligand)
2 | 1.9 |  | 1.25 | 1.31 |  | 1.26 | 2.26 | 2.1 | 1.2 to 1.4 | recombinant VWF (rVWF, Vonvendi) (from UniProt P04275 764-2813) (ligand)
3 | 1.2 |  |  |  |  |  |  |  |  | Humate P (from UniProt P04275 764-2813) (ligand)
